Source: patent US20250042968A1 (UNIVERSITY OF MIAMI, published 2025)

Target: T1, EphA2 (UniProt P29317 25-534, limits assumed)
T1 construct: also called EphA2 receptor
Assay: biolayer interferometry (ForteBio Octet)

T1 sequence (P29317 25-534 limits assumed): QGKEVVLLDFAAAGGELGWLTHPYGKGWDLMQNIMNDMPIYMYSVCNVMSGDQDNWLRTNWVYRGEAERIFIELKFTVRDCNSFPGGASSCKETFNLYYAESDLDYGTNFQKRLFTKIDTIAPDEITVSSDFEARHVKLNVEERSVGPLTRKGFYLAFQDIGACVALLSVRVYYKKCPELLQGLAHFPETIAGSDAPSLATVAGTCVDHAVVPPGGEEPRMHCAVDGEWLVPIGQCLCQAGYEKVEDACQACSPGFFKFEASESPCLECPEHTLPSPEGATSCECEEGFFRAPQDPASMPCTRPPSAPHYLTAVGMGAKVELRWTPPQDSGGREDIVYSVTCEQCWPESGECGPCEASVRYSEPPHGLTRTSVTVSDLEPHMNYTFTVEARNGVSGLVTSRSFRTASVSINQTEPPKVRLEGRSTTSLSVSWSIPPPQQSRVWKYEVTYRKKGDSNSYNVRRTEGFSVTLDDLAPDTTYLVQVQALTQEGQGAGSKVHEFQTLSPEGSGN

binding result: no binding
B1: SNEW (peptide)
peptide: SNEWIQPRLPQH
notes: Known EphB2 targeting peptide, tested alongside the xEFN peptides as a comparator
